These results are taken from patent publication US20200247855A1, “THERAPY AND DIAGNOSTICS” (OXFORD UNIVERSITY INNOVATION LIMITED, priority 2017, published 2020).

The test system of test [1] is leucocyte recruitment to the zymosan air-pouch. The experiment in a line: Zymosan subcutaneous dorsal air-pouch inflammation model. It counts as in vivo. The settings on record: 5 mg/kg, exudate at 24 hours, mouse. As to the method:
Zymosan or PBS (control) was injected into the air-pouch (a.p.) on day 6. Peptide or protein (blue) was injected into the air-pouch on day 6 at the time of zymosan injection and repeated 9 hours later. Air-pouch exudate was collected and analysed on day 7 by flow cytometry (FC).
G. Experimental design to assess efficacy of intraperitoneally administered peptide. This is identical to that used for locally administered peptide (above) except that peptide or protein was administered intraperitoneally (i.p.).
C57BL/6J male mice (25-30 g, 8-10-week-old) were obtained from Charles River (UK). They were group housed in temperature and humidity-controlled rooms, kept on a 12-hr light-dark cycle, and provided with food and water ad libitum. Air pouches were established at the dorsal side of the mice as described (Duarte, D. B. et al., Curr Protoc Pharmacol [2016]). […] Total numbers of leucocytes, neutrophils, monocytes, T-cells and eosinophils were counted using an Attune N×T flow cytometer following staining with cell specific antibodies. […]
To characterize the inflammatory subsets in the pouch, multi-colour fluorescence cell staining was conducted using the combination of the following antibodies for various immune cells. […] Data were analysed using FlowJo by an observer blinded to the treatment received. […]

Test [2] addresses T1, CCL8_HUMAN (Homo sapiens, UniProt P80075).
T1 sequence (P80075 24-99): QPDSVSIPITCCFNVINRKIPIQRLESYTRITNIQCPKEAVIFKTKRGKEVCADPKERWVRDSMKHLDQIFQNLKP
Conditions: Eaton, J. R. O. et al., JBC [2018], cited from earlier work.

Test [3] concerns the target CCL20_HUMAN (Homo sapiens, UniProt P78556). The settings on record: data obtained from publications [20-22,32]; cited from earlier work.
For test [4], the target named is T2, CCL23_HUMAN (Homo sapiens, UniProt P55773).
T2 sequence (P55773 22-120): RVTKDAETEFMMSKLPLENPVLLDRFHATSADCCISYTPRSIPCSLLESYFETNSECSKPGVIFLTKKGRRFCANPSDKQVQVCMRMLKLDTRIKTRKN
Conditions: read-out: Kd, CCL23_HUMAN, previously described evasins; data obtained from publications [20-22,32]; cited from earlier work.

For test [5], the target named is T3, CCL27_HUMAN (Homo sapiens, UniProt Q9Y4X3).
T3 sequence (Q9Y4X3 25-112): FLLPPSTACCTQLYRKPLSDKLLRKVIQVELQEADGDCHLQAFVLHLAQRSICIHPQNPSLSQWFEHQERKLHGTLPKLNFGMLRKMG
Conditions: data obtained from publications [20-22,32]; cited from earlier work.

Test [6] deals with CCL11_HUMAN (Homo sapiens, UniProt P51671). The settings on record: read-out: Kd, CCL11_HUMAN, previously described evasins; data obtained from publications [20-22,32]; cited from earlier work.
For test [7], the target named is T4, CCL19_HUMAN (Homo sapiens, UniProt Q99731).
T4 sequence (Q99731 22-98): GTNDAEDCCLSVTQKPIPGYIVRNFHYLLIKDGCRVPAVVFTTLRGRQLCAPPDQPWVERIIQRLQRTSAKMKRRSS
The settings on record: read-out: Kd, CCL19_HUMAN, previously described evasins; data obtained from publications [20-22,32]; cited from earlier work.

Test [8] deals with CCL26_HUMAN (Homo sapiens, UniProt Q9Y258). The settings on record: read-out: Kd, CCL26_HUMAN, previously described evasins; data obtained from publications [20-22,32]; cited from earlier work.

The Kd is the equilibrium constant for the complex coming apart.

Sequence of CCL11_HUMAN (P51671 24-97): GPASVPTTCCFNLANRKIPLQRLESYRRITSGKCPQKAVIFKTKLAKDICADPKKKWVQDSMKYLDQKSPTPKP
Sequence of CCL20_HUMAN (P78556 27-96): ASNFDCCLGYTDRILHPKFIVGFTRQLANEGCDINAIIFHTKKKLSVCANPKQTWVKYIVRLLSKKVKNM
Sequence of CCL26_HUMAN (Q9Y258 24-94): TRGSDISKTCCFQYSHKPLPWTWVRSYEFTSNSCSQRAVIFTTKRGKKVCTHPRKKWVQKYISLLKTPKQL

B1: P672_RHIPU: tick CKBP, Rhipicephalus pulchellus (protein, listed as Rhipicephalus pulchellus)
chain: VCEVSEQEGVGEDNATEDEDYEDFFKPVTCYFANSTVGPLRPPNCTVVCTNNTAWWNDTKSDGGHCYSEYRPEKRTHSREIYNCTIGVCGNGTCIANHTYADCW
For the molecule B1, in test [1] (injected into the air-pouch at 0 and 9 h), the “Number of neutrophils, eosinophils, monocytes and T-cells recruited to the air-pouch, local administration” value is “strong and significant reduction”. Also, the “Number of neutrophils, eosinophils, monocytes and T-cells recruited to the air-pouch, intraperitoneal administration” value in test [1] (injected intraperitoneally at 0 and 9 h) was “substantial and significant reduction”. The “Residency time (RT) of P672:CCL8 interaction” value in test [2] is given as 27 min. In addition, the Kd in test [2] (read-out: Kd of P672:CCL8 interaction) was 8.5 nM.

B2: EVASIN4: previously described tick CKBP evasin 4, from Rhipicephalus sanguineus (protein, listed as Rhipicephalus sanguineus)
chain: EVPQMTSSSAPDLEEEDDYTAYAPLTCYFTNSTLGLLAPPNCSVLCNSTTTWFNETSPNNASCLLTVDFLTQDAILQENQPYNCSVGHCDNGTCAGPPRHAQCW
In the case of B2, the “Kd, CCL20_HUMAN, previously described evasins” value in test [3] was “No Binding”. The Kd in test [4] is 4.43 nM; in test [6], 0.34 nM; in test [7] it was 0.14 nM; in test [8], 0.88 nM. Besides, the “Kd, CCL27_HUMAN, previously described evasins” value in test [5] was “No Binding”.
